# B1: Beta-lactamase (Enterobacter cloacae), P05364 (protein)
# chain: MMRKSLCCALLLGISCSALATPVSEKQLAEVVANTITPLMKAQSVPGMAVAVIYQGKPHYYTFGKADIAANKPVTPQTLFELGSISKTFTGVLGGDAIARGEISLDDAVTRYWPQLTGKQWQGIRMLDLATYTAGGLPLQVPDEVTDNASLLRFYQNWQPQWKPGTTRLYANASIGLFGALAVKPSGMPYEQAMTTRVLKPLKLDHTWINVPKAEEAHYAWGYRDGKAVRVSPGMLDAQAYGVKTNVQDMANWVMANMAPENVADASLKQGIALAQSRYWRIGSMYQGLGWEMLNWPVEANTVVEGSDSKVALAPLPVAEVNPPAPPVKASWVHKTGSTGGFGSYVAFIPEKQIGIVMLANTSYPNPARVEAAYHILEALQ
# Substrate: O=C(O)[C@H]1C(CCO)O[C@@H]2CC(=O)N21
# Description: Km for inactivation of TEM-1 beta-lactamase
protein,measurement,value
B1,Km,2.2 µM

# — ChEMBL document CHEMBL1128147, “Mechanistic support for the stepwise process for inactivation of class A -lactamases by clavulanate” (Bioorg Med Chem Lett, 1995)
